Measurements taken from patent US8372961B2, “Polynucleotides encoding concatameric immunoadhesion molecules” (Medexgen Co., Ltd., priority 2001, dated 2013).

Legend:
TNFα = TNFα (Homo sapiens, UniProt P01375); assay: Neutralization of TNFα cytotoxicity on L929 cells (crystal violet staining); assay type: cell-based; details: for IC50 of cytotoxicity inhibition, TNFα treated: actinomycin D 3 μg/ml, TNFα 0.5~2 ng/ml (100% cytotoxicity), 16~18 hrs
Protocol: (§1) An L929 cell [ATCC, Mus musculus (mouse), NCTC clone 929 (derivative of strain L; L-929; L cell) was used for testing the effect of TNFR/Fc fusion protein on the inhibition of cytotoxicity induced by TNFα and TNFβ. This analysis was based on the TNFR activity of inhibiting cytotoxicity induced by TNF (Scallon et al., Cytokine 7:759, 1995).
(§2) L929 cells were inoculated to be 3×10^4 cells/well in 96-well plates, and incubated at 37° C. for 24 hrs in a CO2 incubator. Subsequently, actinomycin D (Sigma, USA) was added to 3 μg/ml, and cells were incubated for 16˜18 hrs with TNFα and TNFβ in the concentration of expressing 100% cytotoxicity (0.5˜2 ng/ml), and with serially 10 times diluted TNFR sample. Then, the cells in the 96-well plate were stained by the staining reagent, crystal violet (Wake Pure Chemical Industries, Japan) and the activity of the cells was estimated by the degree of absorbance at 595 nm wavelength using a spectrophotometer (Bio-Rad, Model-550, Japan).

TNFβ = target: T1, TNFβ (Homo sapiens, UniProt P01374); assay: Neutralization of TNFβ cytotoxicity on L929 cells (crystal violet staining); assay type: cell-based; details: for IC50 of cytotoxicity inhibition, TNFβ treated: actinomycin D 3 μg/ml, TNFβ 0.5~2 ng/ml (100% cytotoxicity), 16~18 hrs
T1 sequence (P01374 35-205): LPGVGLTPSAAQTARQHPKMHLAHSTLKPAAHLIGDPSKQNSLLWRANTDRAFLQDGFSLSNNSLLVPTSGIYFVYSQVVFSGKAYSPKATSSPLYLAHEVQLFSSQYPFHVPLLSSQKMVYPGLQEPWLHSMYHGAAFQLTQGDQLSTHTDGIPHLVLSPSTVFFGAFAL
Protocol: as §1, §2

TNFα, sequence (P01375 77-233 limits assumed, species assumed): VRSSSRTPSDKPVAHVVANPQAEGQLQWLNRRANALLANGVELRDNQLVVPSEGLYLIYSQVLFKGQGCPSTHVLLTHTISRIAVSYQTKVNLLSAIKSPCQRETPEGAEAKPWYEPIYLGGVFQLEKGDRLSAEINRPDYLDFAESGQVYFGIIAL

Substance | IC50 of cytotoxicity inhibition, TNFα treated (TNFα) [µg/mL] | inhibitory effect on the cytotoxicity induced by TNFα, compared with simple dimeric fusion proteins (TNFα; versus TNFR1/Ig and TNFR2/Ig) | IC50 of cytotoxicity inhibition, TNFβ treated (TNFβ) [µg/mL] | inhibitory effect on the cytotoxicity induced by TNFβ, compared with simple dimeric fusion proteins (TNFβ; versus TNFR1/Ig and TNFR2/Ig)
[TNFR1-TNFR1/Fc]2: concatameric fusion dimeric protein: two TNFR1 soluble extracellular domains in tandem fused to IgG1 Fc; monomer SEQ ID NO: 6 | 9 | higher inhibitory effect | 20 | higher inhibitory effect
[TNFR1/Fc]2: conventional simple fusion dimeric protein: soluble extracellular domain of human TNFR1 fused to IgG1 Fc; monomer SEQ ID NO: 2 [reference compound] | 63 |  | 129 | 
